Measured values published in US20250215108A1.

What was measured:
[1] = target: recombinant hSIRPa-His (Sino Biologicals, reference 11612-H08H) (human) (UniProt P78324); assay: ELISA, immobilized hSIRPa-His, anti-human IgG detection
[2] = target: SIRPγ on peripheral human CD3+ T cells (human) (UniProt Q9P1W8); assay: flow cytometry on human CD3+ T cells, antibody at 10 micrograms/ml
[3] = target: SIRPγ on peripheral human CD3+ T cells (human) (UniProt Q9P1W8); assay: flow cytometry on peripheral human CD3+ T cells, 10 µg/ml; Exp 1 HV1
[4] = target: SIRPγ on peripheral human CD3+ T cells (human) (UniProt Q9P1W8); assay: flow cytometry on peripheral human CD3+ T cells, 10 µg/ml; Exp 1 HV2
[5] = target: SIRPa on human monocytes (human) (UniProt P78324); assay: flow cytometry on human monocytes v1/v1 (Fc receptors blocked), PE anti-human Fc; readout MFI
[6] = target: recombinant hSIRPb-His (Antibodies-online, reference ABIN3077231) (human) (UniProt Q5TFQ8); assay: BLI (Blitz): SIRPb-His on Ni-NTA biosensor, antibody at 20 µg/ml; 120 s association, 120 s dissociation
[7] = target: SIRPa on human monocytes (human) (UniProt P78324); assay: flow cytometry on human monocytes v1/v1 (Fc receptors blocked), PE anti-human Fc; readout % stained monocytes
[8] = target: recombinant hSIRPa-His (Sino Biologicals, reference 11612-H08H) (human) (UniProt P78324); assay: SPR (Biacore 3000); SIRPa-His immobilised on a CM5 chip (500 RU), antibody injected; 3 min association, 10 min dissociation
[9] = target: recombinant hSIRPg-His (Sino Biologicals, reference 11828-H08H) (human) (UniProt Q9P1W8); assay: BLI (Blitz): SIRPg-His on Ni-NTA biosensor, antibody at 10 µg/ml or 20 µg/ml (Example 9); 120 s association, 120 s dissociation
Sequence of recombinant hSIRPg-His (Sino Biologicals, reference 11828-H08H) (human) (Q9P1W8 29-360): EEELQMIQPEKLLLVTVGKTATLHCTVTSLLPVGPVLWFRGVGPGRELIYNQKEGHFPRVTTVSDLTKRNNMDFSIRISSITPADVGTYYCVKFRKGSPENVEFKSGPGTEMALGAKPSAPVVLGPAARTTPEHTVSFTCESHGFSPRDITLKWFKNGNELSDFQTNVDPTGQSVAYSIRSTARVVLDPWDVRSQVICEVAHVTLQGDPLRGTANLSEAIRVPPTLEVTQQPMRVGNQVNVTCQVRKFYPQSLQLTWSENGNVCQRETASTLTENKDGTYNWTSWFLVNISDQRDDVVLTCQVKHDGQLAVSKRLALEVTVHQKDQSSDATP

Sequence of SIRPγ on peripheral human CD3+ T cells (human) (Q9P1W8 29-387): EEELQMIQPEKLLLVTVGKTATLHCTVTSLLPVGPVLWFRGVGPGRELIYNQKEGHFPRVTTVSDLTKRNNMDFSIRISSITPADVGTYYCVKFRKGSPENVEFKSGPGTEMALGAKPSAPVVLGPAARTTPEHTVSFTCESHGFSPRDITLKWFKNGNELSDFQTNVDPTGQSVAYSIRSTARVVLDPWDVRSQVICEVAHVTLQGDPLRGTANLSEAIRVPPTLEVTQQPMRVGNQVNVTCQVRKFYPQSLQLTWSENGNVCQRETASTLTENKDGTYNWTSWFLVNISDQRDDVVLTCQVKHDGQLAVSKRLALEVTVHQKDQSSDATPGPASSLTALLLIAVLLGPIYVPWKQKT
Sequence of recombinant hSIRPb-His (Antibodies-online, reference ABIN3077231) (human) (Q5TFQ8 30-371): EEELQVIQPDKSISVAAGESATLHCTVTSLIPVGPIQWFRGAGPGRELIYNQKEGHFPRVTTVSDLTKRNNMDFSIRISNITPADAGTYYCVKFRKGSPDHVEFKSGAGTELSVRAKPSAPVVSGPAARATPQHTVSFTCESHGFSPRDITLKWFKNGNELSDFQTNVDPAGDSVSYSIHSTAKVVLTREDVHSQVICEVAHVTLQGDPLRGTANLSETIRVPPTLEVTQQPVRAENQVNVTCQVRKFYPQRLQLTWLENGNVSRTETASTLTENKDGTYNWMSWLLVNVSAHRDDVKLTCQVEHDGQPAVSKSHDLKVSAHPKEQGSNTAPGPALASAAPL

EC50 [1]: 0.0033 µg/mL
percent of T cells stained [2]: > 70%
% of positive T-cells [3]: 80%
% of positive T-cells [4]: 89.3%
EC50 [5]: 0.378 µg/mL
Kd [6]: 2.77 nM
EC50 [7]: 0.26 µg/mL
Kd [8]: 0.367 nM
Kd [9]: 2.14 nM
B1: anti-human SIRPa antibody Kwar23 (Creative Biolabs) (antibody, from a related filing, V domains shown)
VH: EVQLQQSGAELVKPGASVKLSCTASGFNIKDYYIHWVQQRTEQGLEWIGRIDPEDGETKYAPKFQDKATITADTSSNTAYLHLSSLTSEDTAVYYCARWGAYWGQGTLVTVSS
VL: QIVLTQSPAIMSASPGEKVTLTCSASSSVSSSYLYWYQQKPGSSPKLWIYSTSNLASGVPARFSGSGSGTSYSLTISSMEAEDAASYFCHQWSSYPRTFGAGTKLELK
